In patent publication US20140302063A1 (SECRETARY OF STATE FOR HEALTH, published 2014):

B1: R2a-G9 (VHH)
VHH: QVQLVESGGGLVQPGGSLRLSCAASDNIFSFYTMGWYRQSPGKERELVAVIGNGGNTNYADSVKGRFTISRDNGKNKAHLQMNSLKPEDTAVYYCKASGPGGVEVWGQGTQVTVSS
B2: R1a-E5 (VHH)
VHH: QLQLVESGGGLVQPGGSLRLSCTASGFSLDNYAIGWFRRAPGEEREGVSFITSTSAVTKYADSVKGRFTISRDNAKNTVYLQMTSLKPEDTAVYYCAGTRWVPTMKADEYNYWGQGTQVTVSS
B3: R1a-E6 (VHH)
VHH: QVQLVESGGGLVQPGGSLRLSCAASGFTLGAYAIAWFRQAPGKEREGVSCISPSDSFTEYGDSVKGRFTVSRDNAKNTVYLQMNSLQPEDTAVYYCAADPVCTAGWYRPSRFDLWGQGTQVTVSS
B4: R1a-G5 (VHH)
VHH: QLQLVESGGGLVQPGGSLRLSCAASGSISRIVTMGWYRQASGKERELVAVIGNYGNTNYADSVKGRFTVSRDNAKDTAYLQMNGLNVEDTAIYYCKTSTTTPPYEYWGQGTQVTVSS
B5: R1a-F4 (VHH)
VHH: QVQLVESGGGLVQPGGSLRLSCAASGSISRIVTMGWYRQGPGKERELVAVIGNYGNTNYADSVKGRFTVSRDNAKDTAYLQMNNLNVEDTAMYYCKCSTTTPPHEFWGQGTQVTVSS
B6: R1a-H6 (VHH)
VHH: QVQLVESGGGLVQAGDSLRLSCTASVLTFSLYRVGWFRQAPGKEREFVAAIDWGDGPTTYADSVKGRFTISRDNAERTAYLQINSLKPEDTAVYYCGAGNTGSSDRSSSYVHWGQGTQVTVSS
B7: R2b-D9 (VHH)
VHH: QVQLVESGGGLVQPGGSLRLSCLASGSAFSLYTMGWYRQAPGNQRELVAAITSGESTNYADSVKGRFTISRDNAKNTVYLQMNSLKPEDTAVYYCNADPLSTGWGQYSYWGQGTQVTVSS
B8: R2b-E8 (VHH)
VHH: QVQLVESGGGLVQPGGSLRLSCAASGSFFSRYRMGWYRQAPGEQRELVAGITYDDSTNYAGSVKGRFTISRDNAKNTVHLQMNSLKPEDTAVYYCNLNPPGNLYWGQGTQVTVSS
B9: R2a-B9 (VHH)
VHH: QVQLVESGGGLVQPGGSLRLSCAASGSAFSINAMGWYRQAPGEEREFVAAITAGGNTYYADSAKARFTISRDNAKNMLYLQMNSLKPEDTAMYYCAATKAFGIATITADYELWGQGTQVTVSS
B10: R1a-C5 (VHH)
VHH: QVQLVESGGGLVQPGGSLRLSCAASNDIFSFYTMGWYLQAIGKQREPVAVIGNGGNTNYAESVKGRFTISRDGAKNTAYLQMNSLKPEDTAVYYCMASGPGGLNVWGQGTQVTVSS
B11: R1a-G6 (VHH)
VHH: QVQLVESGGGLVQSGGSLRLSCAASGSMSRIITMGWYRQAPGMERELVAVIGNNDNTVYGDSVQGRFTVSRDNAKNTAYLQMNSLNAEDTAMYYCKISTLTPPHEYWGQGTQVTVSS
B12: R2a-F9 (VHH)
VHH: QVQLVESGGGLVQPGGSLRLSCSASGSISSIVTMGWYRQAPGKERELVAVIGNYGNTNYADSVKGRFTVSRDNAKNTVYLQMNSLNVEDTAMYVCKFSSTVAPHEYWGQGTQVTVSS
B13: R2a-G8 (VHH)
VHH: QLQLAESGGGLVQAGGSLRLSCAASGSTLNNNAIGWFRQAPGKEREGVSCMNSRDGTTNYADSVKGRFTISRDVAKNTVYLQMNSLKPEDTAVYFCAVKGFAPFLIGCPWGKAEYDYWGQGTQVTVSS
B14: R1a-F5 (VHH)
VHH: QLQLVESGGGLVQVGGSLRLSCAASGFPFDGYAIAWFRQAPGKEREGVSCRASDGNTYYAESLKGRLTMSTDNAKNTVYLQMNSLKPEDTAVYYCAAASWVASLWSPSEYDYWGQGTQVTVSS
B15: R2a-H9 (VHH)
VHH: QVQLVESGGGLVQPGGSLRLSCAASTNIASFYTMGWYRQTPGQQRDVVAVIGNGGNTNYADSVKGRFTISRDGAKNTAHLQMNSLKPEDTDVYYCKASGPGGVILWGQGTQVTVSS
B16: R2a-E8 (VHH)
VHH: QLQLVESGGGLVQPGGSLRLSCTASGDIFVMYMIDWYRQAPGKQRELVASIDGRGTPMYADSVKGRFTISRDNAKNTVYLQMNSLKPEDTAVYSCHAKSPLVDNEYWGQGTQVTVSS
B17: R1a-A5 (VHH)
VHH: QVQLVESGGGLVQPGGSLRLSCSASGSAVLFSTYPMSWYRQAPGKQRELVAAVTTDGSTSYADYAKGRFTISRDNAKNTVYLQMNSLKPEDTAVYYCNARDGFFNRYDYWGQGTQVTVSS
B18: R1a-B6 (VHH)
VHH: QVQLVESGGGLVQPGGSLRLSCAASGSFFSRYRMGWYRQAPGEQRELVASIAYDGSTSYADPVKGRFTISRDNANTVHLQMYSLKPDDTAVYYCNLDPPGILYWGQGTQVTVSS
B19: R2b-D8 (VHH)
VHH: QVQLVESGGGLVQPGGSLRLSCAASGFTFSWYDVGWYRRAPGKERELVADIASTRGTTNYADSVKGRFTISRDNAKNSVYLQMNSLKPEDTAVYYCNTRRDWRDYWGQGIQVTVSS

Key:
[1] = molecular target: T1, recombinant H2 A/Japan/305/1957 (H2N2) (Influenza A virus A/Japan/305/1957 …, UniProt P03451 16-525); assay: SPR, single cycle kinetics
[2] = molecular target: full length recombinant H1 residues 18-530 derived from A/California/06/09 (Influenza A virus A/California/06/09 (H1N1)); assay: SPR, single cycle kinetics, HA immobilised
[3] = molecular target: Recombinant haemagglutinin HA1 domain (18-344) (A/California/06/09) H1N1 (Influenza A virus A/California/06/09 (H1N1)); assay: SPR, single cycle kinetics, HA1 domain immobilised
[4] = molecular target: recombinant H5 A/Vietnam/1203/04 (H5N1) (Influenza A virus A/Vietnam/1203/04 (H5N1)); assay: SPR, single cycle kinetics, HA immobilised
[5] = molecular target: recombinant H9 A/HongKong/1073/99 (H9N2) (Influenza A virus A/HongKong/1073/99 (H9N2)); assay: SPR, single cycle kinetics, HA immobilised
[6] = molecular target: T1, recombinant H2 A/Japan/305/1957 (H2N2); assay: SPR, single cycle kinetics, HA immobilised

Row | Binder | binding result [1] | Kd [2] | Kd [3] | Kd [4] | Kd [5] | Kd [6]
1 | B1 | no binding (tested: 100 nM) | 62 nM | 69 nM |  |  | 
2 | B2 | no binding (tested: 100 nM) | 0.6 nM |  |  |  | 
3 | B3 | no binding (tested: 100 nM) | 22.8 nM | 36 nM |  |  | 
4 | B4 | no binding (tested: 100 nM) | 24 nM | 26 nM |  |  | 
5 | B5 | no binding (tested: 100 nM) | 7.3 nM | 4.7 nM |  |  | 
6 | B6 | no binding (tested: 100 nM) |  |  | 241 nM |  | 
7 | B7 | no binding (tested: 100 nM) | 0.4 nM |  | 1.6 nM | 59 nM | 
8 | B8 | no binding (tested: 100 nM) | 8.2 nM |  | 3.6 nM | 87 nM | 
9 | B9 | no binding (tested: 100 nM) | 0.2 nM |  |  |  | 
10 | B10 |  | 1.9 nM | 734 nM | 2.7 nM | 22 nM | 67 nM
11 | B11 | no binding (tested: 100 nM) | 4.4 nM | 4.6 nM |  |  | 
12 | B12 | no binding (tested: 100 nM) | 60 nM | 79 nM |  |  | 
13 | B13 |  | 3.1 nM | 7.7 nM | 9 nM |  | 39 nM
14 | B14 | no binding (tested: 100 nM) | 9.2 nM | 6.1 nM |  |  | 
15 | B15 |  | 2.8 nM | 4.7 nM |  |  | 40 nM
16 | B16 |  | 0.8 nM |  |  |  | 34 nM
17 | B17 |  | 3.3 nM |  | 0.7 nM |  | 186 nM
18 | B18 |  | 0.7 nM |  | 1.7 nM | 7.6 nM | 43 nM
19 | B19 | no binding (tested: 100 nM) |  |  |  |  | 
